Results reported in the supplement of paper PMC10567573.

B1: FBXO3 (parent)
chain: AGGFQQRQGLKYCLPLTFCIHTGL

Variants of: B1
Assay: protein stability index of a GFP-peptide fusion (GPS, HEK-293T) (PSI 1-6); higher = more stable
Conditions: c terminus: a fixed tail appended
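Further: lentivirally expressed fusions sorted by FACS into six bins by GFP to DsRed ratio, PSI derived from sequencing read proportions per bin multiplied by bin number.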

Protein stability index, by site and new letter:
L16: E 2.03, H 2.58, T 2.53, A 2.44, I 3.02, R 2.91, P 2.75, Q 1.52, K 2.95, S 2.17, M 4.03, F 3.56, Y 2.33, C 1.66, D 1.68, W 2.89, N 1.51
L10: P 2.2, S 3.66, T 2.53, M 2.56, K 3.64, V 2.85, E 2.19, Y 3.49, W 3.49, Q 3.23, F 2.03, C 2.26, D 2.84, N 2.56, A 2.95, H 1.64
C19: F 2.44, L 2.86, K 2.21, Q 1.74, G 1.97, E 3.11, A 3.9, D 1.46, P 1.87, H 2.66, M 2.71, I 1.6, N 2.04
L14: T 1.84, E 1.97, M 2.42, G 3.59, K 2.73, Q 2.57, P 1.56, D 1.78, C 3.66, S 2.67, H 1.75, V 4.27, I 4.28, N 2.34, A 2.7, Y 2.16, R 2.88
P15: M 2.93, K 1.13, F 2.95, Q 2.27, G 2.33, I 3.05, R 2.51, S 2.81, L 2.01, C 2.57, A 2.77, W 1.61
F18: K 1.89, R 1.05, G 1.1, V 4.06, H 1.77, Y 2.71, E 2.36, M 2.41, P 1.68, A 2.38, S 1.4, I 2.93, D 1.67, N 1.95, T 1.19, Q 2.47, L 3.1
Y12: L 3.06, A 3.25, D 2.21, C 2.32, T 2.2, Q 3.79, G 3.3, K 2.49, R 3.39, E 2.29, S 3.56, M 2.59, P 1.68, I 2.84, V 2.36, N 1.86, W 2.43
C13: G 2.48, D 2.67, V 3.35, A 2.85, Q 3, L 1.69, F 2.94, T 3.22, Y 2.22, P 3.01, E 3.1, W 3.43, I 2.94, M 2.51, N 2.93, H 2.57
G9: V 2.39, Y 3.4, Q 2.5, T 3.85, S 3.54, N 2.28, R 1.48
K11: L 2.21, Y 2.43, M 1.96, I 3.42, F 3.02, H 2.35, W 4.04, R 2.03, C 2.12, N 1.99, A 2.43, E 2.8, D 3.52, S 2.74, G 3.61, T 2.45, V 3.35, Q 2.75
T17: E 4.01, R 2.87, K 2.75, I 2.65, P 2.59, Y 2.69, C 2.73, N 1.66, Q 2.4, D 1.55, F 1.67, L 2.11, M 3.43, H 3.39, W 3.79, V 3.17, G 2.31
